In one experiment the target is GST tagged human Cdk1 (human, UniProt P06493 1-297). The experiment is described as follows: far-Western, overlay or dot blot.
A further experiment addresses His tagged human PCNA (human, UniProt P12004 1-261). The experiment is described as follows: far-Western, overlay or dot blot.

GST tagged human Cdk1, sequence (P06493 whole entry): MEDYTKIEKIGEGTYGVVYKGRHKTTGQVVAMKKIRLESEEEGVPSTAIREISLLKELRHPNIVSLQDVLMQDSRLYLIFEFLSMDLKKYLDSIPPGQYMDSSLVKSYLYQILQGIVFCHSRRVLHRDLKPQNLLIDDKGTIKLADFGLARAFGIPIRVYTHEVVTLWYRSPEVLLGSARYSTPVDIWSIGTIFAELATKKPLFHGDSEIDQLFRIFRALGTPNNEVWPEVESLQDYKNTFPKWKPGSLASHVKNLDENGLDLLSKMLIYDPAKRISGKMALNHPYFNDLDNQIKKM
His tagged human PCNA, sequence (P12004 whole entry): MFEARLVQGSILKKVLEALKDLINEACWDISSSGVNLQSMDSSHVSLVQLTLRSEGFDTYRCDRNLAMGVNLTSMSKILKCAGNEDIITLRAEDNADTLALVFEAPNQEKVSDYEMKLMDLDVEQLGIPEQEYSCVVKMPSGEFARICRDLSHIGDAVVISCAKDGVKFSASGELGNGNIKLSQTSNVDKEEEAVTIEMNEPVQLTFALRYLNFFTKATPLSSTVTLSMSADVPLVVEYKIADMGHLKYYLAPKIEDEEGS

B1: His tagged human Δ16mtSSB (mtSSB lacking 16 N-terminal amino acids) (natural protein, UniProt Q04837 17-148, looked up)
chain: ESETTTSLVLERSLNRVHLLGRVGQDPVLRQVEGKNPVTIFSLATNEMWRSGDSEVYQLGDVSQKTTWHRISVFRPGLRDVAYQYVKKGSRIYLEGKIDYGEYMDKNNVRRQATTIIADNIIFLSDQTKEKE
B1: in the experiment with GST tagged human Cdk1, the binding result is “binds”.

B2: human recombinant Δ80AAG (AAG lacking the first 80 amino acids) (domain or fragment, UniProt P29372 81-298, looked up)
chain: GHLTRLGLEFFDQPAVPLARAFLGQVLVRRLPNGTELRGRIVETEAYLGPEDEAAHSRGGRQTPRNRGMFMKPGTLYVYIIYGMYFCMNISSQGDGACVLLRALEPLEGLETMRQLRSTLRKGTASRVLKDRELCSGPSKLCQALAINKSFDQRDLAQDEAVWLERGPLEPSEPAVVAAARVGVGHAGEWARKPLRFYVRGSPWVSVVDRVAEQDTQA
Consider B2, for which, in the experiment with His tagged human PCNA, the binding result is recorded as “binds”.

(Values after publication PMC3998512 (DNA repair, 2013).)
